Where a chain is given by its changes, count along the chain named. Where two headings read alike, the source gives them in different places.
Tests used:
[1] = target: T1, scCD3εγ; test: ELISA: plate-bound biotinylated scCD3εγ, His-tagged construct titrated without and with 100 nM soluble VEGF
T1 chain 1: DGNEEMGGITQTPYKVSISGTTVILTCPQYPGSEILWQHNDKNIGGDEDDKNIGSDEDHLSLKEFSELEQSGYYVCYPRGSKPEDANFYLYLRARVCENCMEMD
T1 chain 2: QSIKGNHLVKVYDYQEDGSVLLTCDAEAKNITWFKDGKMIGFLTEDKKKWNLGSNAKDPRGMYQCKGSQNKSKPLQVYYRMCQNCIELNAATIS
Protocol: (§1) The difference in binding of Switchdrug DARPins to scCD3εγ in presence and absence of VEGF was assessed. […] Said Switchdrug DARPins were mixed with a constant concentration of VEGF (100 nM) and tested for binding to scCD3εγ. […] The difference in EC50 of a construct in presence and absence of VEGF can be referred to as the “activation window”.
(§2) Switchdrug DARPins that were mixed with VEGF were titrated and pre-incubated for 1 day with VEGF in order to establish the thermodynamic equilibrium. These samples were loaded on the ELISA plate, incubated and washed, before the bound Switchdrug DARPins were detected as described above.

[2] = target: T2, VEGF165 (UniProt P15692-4 27-191, biotinylated in the ELISA of Example 4 (site not stated)); test: ELISA: plate-bound biotinylated VEGF165, His-tagged construct titrated, no soluble VEGF, anti-His-HRP detection
T2 construct: also called biotinylated VEGF165; soluble VEGF
T2 sequence (P15692 other isoform, or with tags, fused parts or gaps limits assumed): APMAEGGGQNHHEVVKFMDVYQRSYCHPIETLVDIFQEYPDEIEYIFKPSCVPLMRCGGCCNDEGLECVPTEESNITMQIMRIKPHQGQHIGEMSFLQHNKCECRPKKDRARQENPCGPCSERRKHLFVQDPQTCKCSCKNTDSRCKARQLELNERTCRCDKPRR

[3] = target: T1, scCD3εγ; test: ELISA: plate-bound biotinylated scCD3εγ, His-tagged construct titrated in presence of 100 nM soluble VEGF
Protocol: as §1, §2

[4] = target: T1, scCD3εγ; test: ELISA: plate-bound biotinylated scCD3εγ, His-tagged construct titrated without and with 100 nM soluble VEGF
Protocol: as §1, §2

[5] = target: T1, scCD3εγ; test: ELISA: plate-bound biotinylated scCD3εγ, His-tagged construct titrated, no VEGF
Protocol: as §1, §2

[6] = target: T1, scCD3εγ; test: ELISA: plate-bound biotinylated scCD3εγ, His-tagged construct titrated in presence of 100 nM soluble VEGF
Protocol: as §1, §2

[7] = target: T1, scCD3εγ; test: ELISA: plate-bound biotinylated scCD3εγ, His-tagged construct titrated, no VEGF
Protocol: as §1, §2

[8] = target: T1, scCD3εγ; test: as above
Protocol: as §2

[9] = target: T1, scCD3εγ; test: ELISA: plate-bound biotinylated scCD3εγ, His-tagged construct titrated in presence of 100 nM soluble VEGF
Protocol: as §1, §2

[10] = target: T1, scCD3εγ; test: ELISA: plate-bound biotinylated scCD3εγ, His-tagged construct titrated without and with 100 nM soluble VEGF
Protocol: as §1, §2

[11] = target: T3, Aminoglycoside phosphotransferase (APH) (Enterococcus faecalis (Streptococcus …, UniProt P0A3Y5 2-264))
T3 chain: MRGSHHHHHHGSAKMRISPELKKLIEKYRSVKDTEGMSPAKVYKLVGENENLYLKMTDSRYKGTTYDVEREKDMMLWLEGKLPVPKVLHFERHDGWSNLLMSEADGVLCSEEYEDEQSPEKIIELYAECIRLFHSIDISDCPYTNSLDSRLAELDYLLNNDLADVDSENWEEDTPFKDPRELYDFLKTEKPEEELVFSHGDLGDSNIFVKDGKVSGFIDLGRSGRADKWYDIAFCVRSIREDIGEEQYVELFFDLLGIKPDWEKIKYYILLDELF

[12] = target: Maltose binding protein (MBP) (E. coli); test: ELISA on MBP, DARPin titrated
[13] = target: T3, Aminoglycoside phosphotransferase (APH); test: ELISA on APH, DARPin titrated
[14] = target: T1, scCD3εγ; test: ELISA: plate-bound biotinylated scCD3εγ, His-tagged construct titrated in presence of 100 nM soluble VEGF
Protocol: as §1, §2

[15] = target: T1, scCD3εγ; test: ELISA: plate-bound biotinylated scCD3εγ, His-tagged construct titrated without and with 100 nM soluble VEGF
Protocol: as §1, §2

B1: Switchdrug DARPin 17-A (designed binder)
chain: MRGSHHHHHHGSDLGKKLLQAARAGQLDEVRELLKAGADVNAKDQYGRTPLHLAAIKGHLEIVEVLLKAGADVNAKDSLGYTPLHLAAVEGPLEIVEVLLKAGADVNAKDAYGQTPLHIAAAWGHLEIVEVLLKAVADVNAQDKSGKTPADLAARAGHQDIAEVLQKAAGSPTPTPTTPTPTPTTPTPTPTGSDLGQKLLEAAWAGQDDEVRELLKAGADVNAKNSRGWTPLHTAAQTGHLEIFEVLLKAGADVNAKNDKRVTPLHLAAALGHLEIVEVLLKAGADVNARDSWGTTPADLAAKYGHQDIAEVLQKAAGSPTPTPTTPTPTPTTPTPTPTGSDLGKKLLQAARAGQLDEVRELLKAGADVNAKDSTGWTPLHLAAPWGHPEIVEVLLKAGADVNAKDFQGWTPLHLAAAAGHLEIVEVLLKAGADVNAKDWLGWTPLHLAASHGHLEIVEVLLKAGADVNAQDKSGKTPADLAARAGHQDIAEVLQKAA
notes: also called 2-in-1 DARPin17 in Format A
shift in EC50 upon addition of 100 nM VEGF [1]: ~90 fold
EC50 (read off the curve) [2]: ~40 nM

B2: Switchdrug DARPin 15-3 (designed binder)
chain: MRGSHHHHHHGSDLDKKLLEAARAGQDDEVRILLKAGADVNAKDSTGWTPLHLAAPWGHPEIVEVLLKAGADVNAKDFQGWTPLHLAAAAGHLEIVEVLLKAGADVNAKDWLGWTPLHLAASHGHLEIVEVLLKAGADVNAQDKSGKTPADLAARAGHQDIAEVLQKAAGSPTPTPTTPTPTPTTPTPTPTGSDLGKKLLEAARAGQDDEVRELLKAGADVNAKDKDGYTPLHLAAREGHLEIVEVLLKAGADVNAKDKDGYTPLHLAAREGHLEIVEVLLKAGADVNAQDKSGKTPADLAADAGHEDIAEVLQKAAGSPTPTPTTPTPTPTTPTPTPTGSDLGQKLLEAAWAGQDDEVRELLKAGADVNAKNSRGWTPLHTAAQTGHLEIFEVLLKAGADVNAKNDKRVTPLHLAAALGHLEIVEVLLKAGADVNARDSWGTTPADLAAKYGHQDIAEVLQKAA
notes: also called 2-in-1 DARPin15 in Format 3
EC50 (read off the curve) [3]: ~8 nM
shift in EC50 upon addition of 100 nM VEGF [4]: ~54 fold

B3: Switchdrug DARPin 17-3 (designed binder)
chain: B2 chain with D15G, E20Q, D27L, I32E
notes: also called 2-in-1 DARPin17 in Format 3
EC50 (read off the curve) [3]: ~3 nM
shift in EC50 upon addition of 100 nM VEGF [4]: ~100 fold

B4: Switchdrug DARPin 18-A (designed binder)
chain: MRGSHHHHHHGSDLGKKLLQAARAGQLDEVRELLKAGADVNAKDQYGRTPLHLAAIKGHLEIVEVLLKAGADVNAKDSLGYTPLHLAAVEGPLEIVEVLLKAGADVNAKDAYGQTPLHIAAAWGHLEIVEVLLKAVADVNAQDKSGKTPADLAARAGHQDIAEVLQKAAGSPTPTPTTPTPTPTTPTPTPTGSDLGQKLLEAAWAGQDDEVRELLKAGADVNAKNSRGWTPLHTAAQTGHLEIFEVLLKAGADVNAKNDKRVTPLHLAAALGHLEIVEVLLKAGADVNARDSWGTTPADLAAKYGHQDIAEVLQKAAGSPTPTPTTPTPTPTTPTPTPTGSDLDKKLLEAARAGQDDEVRILLKAGADVNAKDSTGWTPLHLAAPWGHPEIVEVLLKAGADVNAKDFQGWTPLHLAAAAGHLEIVEVLLKAGADVNAKDVYGWTPLHIAAASGHLEIVEVLLKAGADVNAKDWLGWTPLHLAASHGHLEIVEVLLKAGADVNAQDKSGKTPADLAARAGHQDIAEVLQKAA
notes: also called 2-in-1 DARPin18 in Format A
EC50 (read off the curve) [5]: ~200 nM
EC50 (read off the curve) [6]: ~90 nM
shift in EC50 upon addition of 100 nM VEGF [1]: ~2 fold
EC50 (read off the curve) [2]: ~90 nM

B5: Switchdrug DARPin 17-1 (designed binder)
chain: MRGSHHHHHHGSDLGQKLLEAAWAGQDDEVRELLKAGADVNAKNSRGWTPLHTAAQTGHLEIFEVLLKAGADVNAKNDKRVTPLHLAAALGHLEIVEVLLKAGADVNARDSWGTTPADLAAKYGHQDIAEVLQKAAGSPTPTPTTPTPTPTTPTPTPTGSDLGKKLLQAARAGQLDEVRELLKAGADVNAKDSTGWTPLHLAAPWGHPEIVEVLLKAGADVNAKDFQGWTPLHLAAAAGHLEIVEVLLKAGADVNAKDWLGWTPLHLAASHGHLEIVEVLLKAGADVNAQDKSGKTPADLAARAGHQDIAEVLQKAA
notes: also called 2-in-1 DARPin17 in Format 1
EC50 (read off the curve) [7]: ~70 nM
EC50 (read off the curve) [8]: ~50 nM
EC50 (read off the curve) [9]: ~3 nM
shift in EC50 upon addition of 100 nM VEGF [10]: ~27 fold

B6: 2-in-1 DARPin 21 (SEQ ID NO: 90) (designed binder)
chain: DLGKKLLEAARAGQDDEVRILMANGADVNANDWFGITPLHLVVNNGHLEIIEVLLKYAADVNASDKSGWTPLHLAAYRGHLEIVEVLLKYGADVNAMDYQGYTPLHLAAEDGHLEIVEVLLKYGADVNAKDKFGKTPLHIAARAGHLEIVEVLLKAGADVNAADNTGTTPLHLAAYSGHLEIVEVLLKHGADVDASDVFGYTPLHLAAYWGHLEIVEVLLKNGADVNAMDSDGMTPLHLAAKWGYLEIVEVLLKHGADVNAQDKFGKTAFDISIDNGNEDLAEILQKAA
Kd [11]: 66.9 nM
EC50 (read off the curve) [12]: ~100 nM
EC50 (read off the curve) [13]: ~20 nM

B7: 2-in-1 DARPin 22 (SEQ ID NO: 91) (designed binder)
chain: B6 chain with K135R, A144N
Kd [11]: 52.6 nM
EC50 (read off the curve) [13]: ~10 nM

B8: Parent DARPin no 2 (SEQ ID NO: 87) (designed binder)
chain: DLGKKLLEAARAGQDDEVRILMANGADVNANDWFGITPLHLVVNNGHLEIIEVLLKYAADVNASDKSGWTPLHLAAYRGHLEIVEVLLKYGADVNAMDYQGYTPLHLAAEDGHLEIVEVLLKYGADVNAQDKFGKTAFDISIDNGNEDLAEILQKLN
Kd [11]: 147 nM

B9: Switchdrug DARPin 18-B (designed binder)
chain: MRGSHHHHHHGSDLDKKLLEAARAGQDDEVRILLKAGADVNAKDSTGWTPLHLAAPWGHPEIVEVLLKAGADVNAKDFQGWTPLHLAAAAGHLEIVEVLLKAGADVNAKDVYGWTPLHIAAASGHLEIVEVLLKAGADVNAKDWLGWTPLHLAASHGHLEIVEVLLKAGADVNAQDKSGKTPADLAARAGHQDIAEVLQKAAGSPTPTPTTPTPTPTTPTPTPTGSDLGKKLLQAARAGQLDEVRELLKAGADVNAKDQYGRTPLHLAAIKGHLEIVEVLLKAGADVNAKDSLGYTPLHLAAVEGPLEIVEVLLKAGADVNAKDAYGQTPLHIAAAWGHLEIVEVLLKAVADVNAQDKSGKTPADLAARAGHQDIAEVLQKAAGSPTPTPTTPTPTPTTPTPTPTGSDLGQKLLEAAWAGQDDEVRELLKAGADVNAKNSRGWTPLHTAAQTGHLEIFEVLLKAGADVNAKNDKRVTPLHLAAALGHLEIVEVLLKAGADVNARDSWGTTPADLAAKYGHQDIAEVLQKAA
notes: also called 2-in-1 DARPin18 in Format B
EC50 (read off the curve) [14]: ~50 nM
shift in EC50 upon addition of 100 nM VEGF [15]: ~19 fold
EC50 (read off the curve) [2]: ~20 nM

B10: Switchdrug DARPin 18-3 (designed binder)
chain: MRGSHHHHHHGSDLDKKLLEAARAGQDDEVRILLKAGADVNAKDSTGWTPLHLAAPWGHPEIVEVLLKAGADVNAKDFQGWTPLHLAAAAGHLEIVEVLLKAGADVNAKDVYGWTPLHIAAASGHLEIVEVLLKAGADVNAKDWLGWTPLHLAASHGHLEIVEVLLKAGADVNAQDKSGKTPADLAARAGHQDIAEVLQKAAGSPTPTPTTPTPTPTTPTPTPTGSDLGKKLLEAARAGQDDEVRELLKAGADVNAKDKDGYTPLHLAAREGHLEIVEVLLKAGADVNAKDKDGYTPLHLAAREGHLEIVEVLLKAGADVNAQDKSGKTPADLAADAGHEDIAEVLQKAAGSPTPTPTTPTPTPTTPTPTPTGSDLGQKLLEAAWAGQDDEVRELLKAGADVNAKNSRGWTPLHTAAQTGHLEIFEVLLKAGADVNAKNDKRVTPLHLAAALGHLEIVEVLLKAGADVNARDSWGTTPADLAAKYGHQDIAEVLQKAA
notes: also called 2-in-1 DARPin18 in Format 3
EC50 (read off the curve) [3]: ~90 nM

Reference: patent publication US20250042957A1 (Molecular Partners, published 2025)
